Results: the supplement of paper PMC10598134
± gives the standard deviation.

Assay: collision cross section of modified peptide (TIMS, N2, iRT-aligned); higher = larger / more extended gas-phase ion
Experimental: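 1/K0 was aligned run-wise to spiked iRT peptides and converted to CCS in N2 (Mason-Schamp). Values are the mean of 1-3 technical replicates for the most abundant feature at each charge state.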

[1] = charge state: 3, modification: Methyl (K)
[2] = charge state: 2, modification: hydroxyisobutyryl
[3] = charge state: 3, modification: Methyl (R)
[4] = charge state: 2, modification: Malonyl
[5] = charge state: 3, modification: Malonyl
[6] = charge state: 2, modification: Nitro (Y)
[7] = charge state: 2, modification: Propionyl
[8] = charge state: 2, modification: Methyl (K)
[9] = charge state: 2, modification: Crotonyl
[10] = charge state: 2, modification: Hydroxyproline
[11] = charge state: 2, modification: Succinyl
[12] = charge state: 3, modification: Succinyl
[13] = charge state: 2, modification: Biotin
[14] = charge state: 3, modification: Biotin
[15] = charge state: 2, modification: Acetyl (K)
[16] = charge state: 3, modification: Hydroxyproline
[17] = charge state: 2, modification: HexNAc (ST)
[18] = charge state: 3, modification: HexNAc (ST)
[19] = charge state: 2, modification: GlyGly (K)
[20] = charge state: 3, modification: GlyGly (K)
[21] = charge state: 2, modification: Butyryl
[22] = charge state: 3, modification: hydroxyisobutyryl
[23] = charge state: 3, modification: Dimethyl (K)
[24] = charge state: 2, modification: Glutarylation
[25] = charge state: 3, modification: Glutarylation
[26] = charge state: 2, modification: Formyl
[27] = charge state: 3, modification: Trimethyl (K)
[28] = charge state: 2, modification: Citrullination (R)

IHNAENIQPGEQKYEYK [_IHNAENIQPGEQK(Methyl (K))YEYK_]
collision cross section [1]: 526.19 ± 0.79 Å²

VFSIISSEKELK [_VFSIISSEK(hydroxyisobutyryl)ELK_]
collision cross section [2]: 414.96 ± 0.83 Å²

YSSSSIPEPFGSRGSPR [_YSSSSIPEPFGSR(Methyl (R))GSPR_]
collision cross section [3]: 522.38 ± 1.8 Å²

DAEAAEATAEGALKAEK [_DAEAAEATAEGALK(Malonyl)AEK_]
collision cross section [4]: 425.91 ± 1 Å² | collision cross section [5]: 541.5 Å²

DYVSQFEGSALGK [_DY(Nitro (Y))VSQFEGSALGK_]
collision cross section [6]: 387.16 ± 0.17 Å²

ALASIDSKLNQAK [_ALASIDSK(Propionyl)LNQAK_]
collision cross section [7]: 398.32 Å²

SSGPGGQNVNKVNSK [_SSGPGGQNVNK(Methyl (K))VNSK_]
collision cross section [8]: 397.83 ± 2.2 Å² | collision cross section [1]: 442.38 ± 4.2 Å²

VDIDAPDVSIEGPDAKLK [_VDIDAPDVSIEGPDAK(Crotonyl)LK_]
collision cross section [9]: 471.19 ± 1.1 Å²

LGPPGNPGPSGSPGPKGQK [_LGPPGNPGPSGSP(Hydroxyproline)GPKGQK_]
collision cross section [10]: 423.7 ± 3 Å²

GEVGAGAGPGAQAGPSAKR [_GEVGAGAGPGAQAGPSAK(Succinyl)R_]
collision cross section [11]: 417.99 ± 0.36 Å² | collision cross section [12]: 474.67 ± 1.5 Å²

ASNAAVKLAESK [_ASNAAVK(Biotin)LAESK_]
collision cross section [13]: 402.96 ± 11 Å² | collision cross section [14]: 464.87 Å²

GAPGGRGAQLSVPSPAR [_GAPGGR(Methyl (R))GAQLSVPSPAR_]
collision cross section [3]: 494.35 ± 0.66 Å²

DKALPLEAEVAPVK [_DK(Acetyl (K))ALPLEAEVAPVK_]
collision cross section [15]: 407.82 ± 5.1 Å²

GLPGLAGDHGEFGEK [_GLP(Hydroxyproline)GLAGDHGEFGEK_]
collision cross section [10]: 432.14 ± 0.34 Å² | collision cross section [16]: 497.67 ± 1.7 Å²

QQETAAAETETR [_QQETAAAETET(HexNAc (ST))R_]
collision cross section [17]: 397.03 ± 0.67 Å² | collision cross section [18]: 483.44 ± 0.18 Å²

LEQVEKELLR [_LEQVEK(Propionyl)ELLR_]
collision cross section [7]: 387.92 ± 0.44 Å²

YEQEHAAIQDKLFQVAK [_YEQEHAAIQDK(Methyl (K))LFQVAK_]
collision cross section [1]: 557.9 ± 0.6 Å²

VGADGTVFATR [_VGADGTVFAT(HexNAc (ST))R_]
collision cross section [17]: 366.62 ± 0.59 Å²

DVNAAIAAIKTK [_DVNAAIAAIK(GlyGly (K))TK_]
collision cross section [19]: 401.67 ± 0.99 Å² | collision cross section [20]: 465.81 ± 1.1 Å²

PGPVGPPGSGGLK [_PGPVGPP(Hydroxyproline)GSGGLK_]
collision cross section [10]: 349.24 ± 3.9 Å²

DHLSDKESK [_DHLSDK(Biotin)ESK_]
collision cross section [13]: 368.95 Å² | collision cross section [14]: 429.55 Å²

GKLGVPGLPGYPGR [_GKLGVP(Hydroxyproline)GLPGYPGR_]
collision cross section [10]: 384.86 ± 0.79 Å² | collision cross section [16]: 481 ± 2.9 Å²

ITGKNQVTATK [_ITGK(Methyl (K))NQVTATK_]
collision cross section [8]: 372.71 ± 1.1 Å² | collision cross section [1]: 447.83 ± 5.1 Å²

ASNAAVKLAESK [_ASNAAVK(Butyryl)LAESK_]
collision cross section [21]: 375.52 ± 1.2 Å²

ANEKTESSSAQQVAVSR [_ANEK(hydroxyisobutyryl)TESSSAQQVAVSR_]
collision cross section [2]: 442.41 ± 0.29 Å² | collision cross section [22]: 538.5 ± 0.04 Å²

EVVKPVPITSPAVSK [_EVVKPVPIT(HexNAc (ST))SPAVSK_]
collision cross section [17]: 445.83 ± 0.56 Å² | collision cross section [18]: 512.07 ± 2.8 Å²

IDLPAENSNSETIIITGKR [_IDLPAENSNSETIIITGK(Acetyl (K))R_]
collision cross section (charge state: 3, modification: Acetyl (K)): 569.63 Å²

EGFSIPVSADGFK [_EGFSIPVS(HexNAc (ST))ADGFK_]
collision cross section [17]: 412.81 ± 0.62 Å²

FSAYIKNSNPALNDNLEK [_FSAYIK(Methyl (K))NSNPALNDNLEK_]
collision cross section [8]: 493.27 Å² | collision cross section [1]: 508.45 ± 2.8 Å²

PASGAGAGAGAGKR [_PASGAGAGAGAGK(Dimethyl (K))R_]
collision cross section (charge state: 2, modification: Dimethyl (K)): 385.92 ± 1.6 Å² | collision cross section [23]: 457.59 ± 1.6 Å²

GTVPDDAVEALADSLGKK [_GTVPDDAVEALADSLGK(Gluratylation)K_]
collision cross section [24]: 452.53 ± 1.2 Å² | collision cross section [25]: 538.57 ± 1.8 Å²

FSAYIKNSNPALNDNLEK [_FSAYIK(Malonyl)NSNPALNDNLEK_]
collision cross section [4]: 479.79 ± 4.5 Å² | collision cross section [5]: 527.7 ± 2.3 Å²

IVFSGNLFQHQEDSKK [_IVFSGNLFQHQEDSK(Formyl)K_]
collision cross section [26]: 496.72 ± 1.3 Å² | collision cross section (charge state: 3, modification: Formyl): 530.13 ± 1.3 Å²

FSAYIKNSNPALNDNLEK [_FSAYIK(Dimethyl (K))NSNPALNDNLEK_]
collision cross section [23]: 510.58 ± 2.9 Å²

SNEEGSEEKGPEVR [_SNEEGSEEK(Gluratylation)GPEVR_]
collision cross section [24]: 407.15 ± 0.96 Å² | collision cross section [25]: 470.21 Å²

VPTTEKPTVTVNFR [_VPTTEK(Methyl (K))PTVTVNFR_]
collision cross section [8]: 426.88 Å² | collision cross section [1]: 510.49 ± 2 Å²

INNFSADIKDSK [_INNFSADIK(hydroxyisobutyryl)DSK_]
collision cross section [2]: 408.19 ± 0.53 Å² | collision cross section [22]: 466.44 ± 1.1 Å²

VGVEVPDVNIEGPEGKLK [_VGVEVPDVNIEGPEGK(Formyl)LK_]
collision cross section [26]: 455.9 ± 1.7 Å²

LLIVSTTPYSEKDTK [_LLIVSTTPYSEK(Trimethyl (K))DTK_]
collision cross section (charge state: 2, modification: Trimethyl (K)): 468.15 ± 1.2 Å² | collision cross section [27]: 501.69 ± 1.8 Å²

VDIDVPDVNIEGPDAKLK [_VDIDVPDVNIEGPDAK(Succinyl)LK_]
collision cross section [11]: 479.51 ± 1 Å² | collision cross section [12]: 508.07 ± 2 Å²

IHNAENIQPGEQKYEYK [_IHNAENIQPGEQK(Trimethyl (K))YEYK_]
collision cross section [27]: 526.11 ± 2.2 Å²

PSVGSQSNQAGQGKR [_PSVGSQSNQAGQGK(hydroxyisobutyryl)R_]
collision cross section [2]: 418.62 ± 0.53 Å² | collision cross section [22]: 477.11 ± 9.7 Å²

YEEIVKEVSTYIK [_YEEIVK(Gluratylation)EVSTYIK_]
collision cross section [24]: 443.96 ± 1.5 Å²

VDIDVPDVNIEGPDAKLK [_VDIDVPDVNIEGPDAK(Acetyl (K))LK_]
collision cross section [15]: 477.46 ± 4.2 Å²

LLIVSTTPYSEKDTK [_LLIVSTTPYSEK(Propionyl)DTK_]
collision cross section [7]: 452.01 Å²

LQEKVESAQSEQK [_LQEK(hydroxyisobutyryl)VESAQSEQK_]
collision cross section [2]: 422.92 ± 0.52 Å² | collision cross section [22]: 502.35 ± 2.1 Å²

DTGEKLTVAENEAETK [_DTGEK(Succinyl)LTVAENEAETK_]
collision cross section [11]: 445.72 ± 1.1 Å² | collision cross section [12]: 515.74 ± 2.2 Å²

SPDEAYAIAKK [_SPDEAYAIAK(Crotonyl)K_]
collision cross section [9]: 376.34 ± 0.8 Å² | collision cross section (charge state: 3, modification: Crotonyl): 442.81 ± 1.6 Å²

VTLEVGKVIQQGR [_VTLEVGK(Malonyl)VIQQGR_]
collision cross section [4]: 413.16 ± 1.2 Å² | collision cross section [5]: 480.87 ± 1.8 Å²

LDEKENLSAK [_LDEK(Methyl (K))ENLSAK_]
collision cross section [8]: 366.29 ± 0.55 Å²

DNNNSNNRGSYNR [_DNNNSNNR(Methyl (R))GSYNR_]
collision cross section [3]: 460.8 ± 2.4 Å²

LDEKENLSAK [_LDEK(hydroxyisobutyryl)ENLSAK_]
collision cross section [2]: 373.33 ± 0.28 Å²

LQLEIDQKK [_LQLEIDQK(Succinyl)K_]
collision cross section [11]: 370.18 ± 1.1 Å²

DFDTALKHYDK [_DFDTALK(Gluratylation)HYDK_]
collision cross section [24]: 406.02 ± 0.63 Å² | collision cross section [25]: 469.01 ± 1.7 Å²

ATVASSTQKFQDLGVK [_ATVASSTQK(Biotin)FQDLGVK_]
collision cross section [13]: 460.81 ± 1.3 Å² | collision cross section [14]: 516.43 ± 0.96 Å²

SGGGYGGDRGGGYGGDR [_SGGGYGGDR(Citrullination (R))GGGYGGDR_]
collision cross section [28]: 393.58 ± 0.28 Å² | collision cross section (charge state: 3, modification: Citrullination (R)): 470.6 ± 4.1 Å²

STGLELETPSLVPVKK [_STGLELETPSLVPVK(GlyGly (K))K_]
collision cross section [19]: 452.54 ± 1.9 Å² | collision cross section [20]: 530.27 ± 9.4 Å²

IQQELQTAKK [_IQQELQTAK(Gluratylation)K_]
collision cross section [24]: 388.2 ± 0.52 Å² | collision cross section [25]: 444.75 Å²

KFGVLSDNFK [_K(Formyl)FGVLSDNFK_]
collision cross section [26]: 368.1 ± 0.89 Å²

DYSAPVNFISAGLKK [_DYSAPVNFISAGLK(Gluratylation)K_]
collision cross section [24]: 441.44 ± 0.95 Å² | collision cross section [25]: 535.69 ± 1.8 Å²

SGATAGAAGGRGK [_SGATAGAAGGR(Methyl (R))GK_]
collision cross section (charge state: 2, modification: Methyl (R)): 366.66 ± 1.5 Å² | collision cross section [3]: 448.31 ± 3.9 Å²

VDIDAPDVSIEGPDAKLK [_VDIDAPDVSIEGPDAK(Butyryl)LK_]
collision cross section [21]: 472.57 ± 0.49 Å²

GRGLPGPAESLR [_GR(Citrullination (R))GLPGPAESLR_]
collision cross section [28]: 366.62 ± 0.53 Å²

GDYDLNAVR [_GDY(Nitro (Y))DLNAVR_]
collision cross section [6]: 344.3 ± 0.72 Å²

VETTVTSLKTK [_VETTVTSLK(Crotonyl)TK_]
collision cross section [9]: 389.71 ± 0.89 Å²
